Each block holds one binder with its values, some of them ahead of it.
Key:
[1] = target: p53^WT, p53^R175H, p53^R248Q, p53^R273H and p53^R280K (His-tagged recombinant proteins, as a group); experiment: ELISA, His-tagged recombinant proteins
[2] = target: the mutants (p53 mutants in whole cell lysates of SKBR3, MDA-MB-231, MDA-MB-468 and HCC70, as a group); experiment: cell-based or functional assay
[3] = target: p53WT and the mutants (p53 in whole cell lysates of CAL-51, SKBR3, MDA-MB-231, MDA-MB-468 and HCC70, as a group); experiment: IP of all p53 with excess antibody, WB of PEPD in the precipitate against input

Kd [1]: 145 to 185 nM
B1: His-tagged recombinant human PEPD (prolidase, peptidase D) (enzyme, UniProt P12955 1-493, looked up)
chain: MAAATGPSFWLGNETLKVPLALFALNRQRLCERLRKNPAVQAGSIVVLQGGEETQRYCTDTGVLFRQESFFHWAFGVTEPGCYGVIDVDTGKSTLFVPRLPASHATWMGKIHSKEHFKEKYAVDDVQYVDEIASVLTSQKPSVLLTLRGVNTDSGSVCREASFDGISKFEVNNTILHPEIVECRVFKTDMELEVLRYTNKISSEAHREVMKAVKVGMKEYELESLFEHYCYSRGGMRHSSYTCICGSGENSAVLHYGHAGAPNDRTIQNGDMCLFDMGGEYYCFASDITCSFPANGKFTADQKAVYEAVLRSSRAVMGAMKPGVWWPDMHRLADRIHLEELAHMGILSGSVDAMVQAHLGAVFMPHGLGHFLGIDVHDVGGYPEGVERIDEPGLRSLRTARHLQPGMVLTVEPGIYFIDHLLDEALADPARASFLNREVLQRFRGFGGVRIEEDVVVTDSGIELLTCVPRTVEEIEACMAGCDKAFTPFSGPK

B2: PEPD in human breast cancer cells (endogenous, in cell lysates, cytosol or nuclear extracts), P12955 2-493 (enzyme, UniProt P12955 2-493, looked up)
chain: AAATGPSFWLGNETLKVPLALFALNRQRLCERLRKNPAVQAGSIVVLQGGEETQRYCTDTGVLFRQESFFHWAFGVTEPGCYGVIDVDTGKSTLFVPRLPASHATWMGKIHSKEHFKEKYAVDDVQYVDEIASVLTSQKPSVLLTLRGVNTDSGSVCREASFDGISKFEVNNTILHPEIVECRVFKTDMELEVLRYTNKISSEAHREVMKAVKVGMKEYELESLFEHYCYSRGGMRHSSYTCICGSGENSAVLHYGHAGAPNDRTIQNGDMCLFDMGGEYYCFASDITCSFPANGKFTADQKAVYEAVLRSSRAVMGAMKPGVWWPDMHRLADRIHLEELAHMGILSGSVDAMVQAHLGAVFMPHGLGHFLGIDVHDVGGYPEGVERIDEPGLRSLRTARHLQPGMVLTVEPGIYFIDHLLDEALADPARASFLNREVLQRFRGFGGVRIEEDVVVTDSGIELLTCVPRTVEEIEACMAGCDKAFTPFSGPK
cells killed by PEPD siRNA after 72 h (trypan blue assay), cells without PEPD^G278D [2]: 65 to 79%

B3: PEPD in human breast cancer cells (endogenous, in cell lysates, cytosol or nuclear extracts) (enzyme, UniProt P12955 2-493, looked up)
chain: AAATGPSFWLGNETLKVPLALFALNRQRLCERLRKNPAVQAGSIVVLQGGEETQRYCTDTGVLFRQESFFHWAFGVTEPGCYGVIDVDTGKSTLFVPRLPASHATWMGKIHSKEHFKEKYAVDDVQYVDEIASVLTSQKPSVLLTLRGVNTDSGSVCREASFDGISKFEVNNTILHPEIVECRVFKTDMELEVLRYTNKISSEAHREVMKAVKVGMKEYELESLFEHYCYSRGGMRHSSYTCICGSGENSAVLHYGHAGAPNDRTIQNGDMCLFDMGGEYYCFASDITCSFPANGKFTADQKAVYEAVLRSSRAVMGAMKPGVWWPDMHRLADRIHLEELAHMGILSGSVDAMVQAHLGAVFMPHGLGHFLGIDVHDVGGYPEGVERIDEPGLRSLRTARHLQPGMVLTVEPGIYFIDHLLDEALADPARASFLNREVLQRFRGFGGVRIEEDVVVTDSGIELLTCVPRTVEEIEACMAGCDKAFTPFSGPK
percent of PEPD that binds to p53 [3]: 6 to 9%

— US20220372490A1
